Like-named read-outs stand apart in the source and are kept apart here.

In assay [1] the target is T1, human transporter associated with antigen processing (TAP), heterodimer of TAP1 and TAP2 (human, UniProt Q03518;Q03519). Put plainly: cryo-EM structure.
Assay [2] addresses T1, human transporter associated with …. The experiment in a line: cryo-EM structure. This is another data set of the same source.

T1 sequence (Q03518 whole entry, chain 1 of 2): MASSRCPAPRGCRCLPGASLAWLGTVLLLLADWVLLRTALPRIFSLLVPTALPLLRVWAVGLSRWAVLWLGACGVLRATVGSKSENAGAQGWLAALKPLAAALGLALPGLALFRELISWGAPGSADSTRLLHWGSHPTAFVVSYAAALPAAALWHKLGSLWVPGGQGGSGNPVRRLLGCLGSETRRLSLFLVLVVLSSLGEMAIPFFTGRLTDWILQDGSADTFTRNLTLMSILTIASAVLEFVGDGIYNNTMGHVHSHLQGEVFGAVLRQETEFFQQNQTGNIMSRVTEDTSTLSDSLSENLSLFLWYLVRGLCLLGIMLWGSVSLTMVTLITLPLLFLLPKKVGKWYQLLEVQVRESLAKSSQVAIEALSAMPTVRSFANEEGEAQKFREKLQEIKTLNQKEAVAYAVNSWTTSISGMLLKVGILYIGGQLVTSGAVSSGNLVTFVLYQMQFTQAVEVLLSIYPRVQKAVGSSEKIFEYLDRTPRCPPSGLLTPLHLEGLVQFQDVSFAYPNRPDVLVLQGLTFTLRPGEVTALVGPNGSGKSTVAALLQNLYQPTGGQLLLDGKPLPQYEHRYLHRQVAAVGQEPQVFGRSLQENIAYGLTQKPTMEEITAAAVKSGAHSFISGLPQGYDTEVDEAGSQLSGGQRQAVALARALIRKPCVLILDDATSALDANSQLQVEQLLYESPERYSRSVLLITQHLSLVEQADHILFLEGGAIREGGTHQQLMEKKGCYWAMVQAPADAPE
T1 sequence (Q03519 whole entry, chain 2 of 2): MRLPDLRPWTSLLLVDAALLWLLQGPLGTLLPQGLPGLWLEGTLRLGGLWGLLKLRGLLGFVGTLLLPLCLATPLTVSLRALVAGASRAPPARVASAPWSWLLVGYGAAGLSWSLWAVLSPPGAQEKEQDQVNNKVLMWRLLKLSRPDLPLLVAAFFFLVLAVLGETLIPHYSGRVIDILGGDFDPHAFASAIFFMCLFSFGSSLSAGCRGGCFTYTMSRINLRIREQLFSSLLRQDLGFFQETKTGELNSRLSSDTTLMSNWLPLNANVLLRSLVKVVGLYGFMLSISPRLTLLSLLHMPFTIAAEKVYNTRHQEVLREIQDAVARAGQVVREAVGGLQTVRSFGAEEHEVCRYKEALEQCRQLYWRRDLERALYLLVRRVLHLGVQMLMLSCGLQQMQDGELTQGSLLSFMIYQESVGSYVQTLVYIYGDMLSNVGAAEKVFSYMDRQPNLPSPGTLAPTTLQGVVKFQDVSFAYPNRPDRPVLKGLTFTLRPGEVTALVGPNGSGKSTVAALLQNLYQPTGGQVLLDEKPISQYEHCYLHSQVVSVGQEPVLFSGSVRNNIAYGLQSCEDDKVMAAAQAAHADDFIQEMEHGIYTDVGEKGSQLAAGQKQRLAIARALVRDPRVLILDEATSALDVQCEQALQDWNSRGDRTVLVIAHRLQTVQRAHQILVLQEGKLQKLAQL

RRYSTEL [b27’’ peptide (7-mer)]: the binding result in assay [1] is listed as “binds”.
With ILKEPVHGV [a2 peptide (9-mer presented by HLA-A2)], the binding result in assay [2] is “binds”.
The same measure, in the same setting: for RRYQKSTEL [b27 peptide (9-mer presented by HLA-B27)] the value was “binds”.
